Results published in paper PMC5849677.

Columns and labels:
[1] = molecular target: native hC3d purified from human serum (human); test: SPR; Biacore; hC3d or C3d(g)-Fc fusions immobilised by amine coupling (94.3-96.2 RU); Fc-fusion analytes 0.195-50 nM in HBS-EP+, physiological salt, 360 s injection; steady state affinity model; apparent KD
[2] = molecular target: hC3d,g (s)-Fc (Cys to Ser variant of hC3dg-Fc) (human) (UniProt P01024); test: as above

“hCR2 (SCR1-4)-Fc (from UniProt P20023 21-273) (Fc fusion)” showed a Kd [1] of 10.6 nM and a Kd [2] of 2.6 nM.
